Laboratory results as given in US20250043302A1, “MUTATED HYDROXYPHENYLPYRUVATE DIOXYGENASE POLYPEPTIDE, AND CODING GENE AND USE THEREOF” (BEIJING DABEINONG BIOTECHNOLOGY CO., LTD., priority 2021, published 2025).

Experiments:
Format in all cases: in vivo
[1] = tested on: Arabidopsis thaliana T1 plants; experiment: Topramezone tolerance of transgenic Arabidopsis thaliana T1 plants (spray, bleached leaf area grade, damage score); details: 7 DAT, Table 4; for Classification and statistics of the grade of pesticide damage: Grade 0 / Classification and statistics of the grade of pesticide damage: Grade 1 / Classification and statistics of the grade of pesticide damage: Grade 2 / Classification and statistics of the grade of pesticide damage: Grade 3: number of plants; for Scores: pesticide damage score 0-100
Procedure, shortened: (§1)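 Damage was assessed by bleaching grade (0 none; 1 <50%; 2 >50%; 3 100% of leaf area) one week after spraying. Sprays on 18-day-old T1 and wild-type plants used field-rate multiples: topramezone 25–200, isoxaflutole 35–280, mesotrione 52.5–420 g ai/ha.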

[2] = tested on: Arabidopsis thaliana T1 plants; experiment: Isoxaflutole tolerance of transgenic Arabidopsis thaliana T1 plants (spray, bleached leaf area grade, damage score); design: Scores (pesticide damage): scale not given here; details: spray, Arabidopsis thaliana T1 plants; for Classification and statistics of the grade of pesticide damage: Grade 0 (number of plants) / Classification and statistics of the grade of pesticide damage: Grade 1 (number of plants) / Classification and statistics of the grade of pesticide damage: Grade 2 (number of plants) / Classification and statistics of the grade of pesticide damage: Grade 3 (number of plants): 16 plants
Procedure, shortened: as §1

[3] = tested on: Arabidopsis thaliana T1 plants; experiment: Mesotrione tolerance of transgenic Arabidopsis thaliana T1 plants (spray, bleached leaf area grade, damage score); design: Scores: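 damage score 0-100 computed as Σ(N×S)/(T×M)×100 over grades 0-3 with higher meaning more damage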; details: Arabidopsis thaliana T1 plants; for Grade 0 (classification and statistics of the grade of pesticide damage; number of plants) / Grade 1 (classification and statistics of the grade of pesticide damage; number of plants) / Grade 2 (classification and statistics of the grade of pesticide damage; number of plants) / Grade 3 (classification and statistics of the grade of pesticide damage; number of plants): 16 plants
Procedure, shortened: as §1

[4] = isoxaflutole 35 g ai/ha (0.5x field concentration)
[5] = isoxaflutole 70 g ai/ha (1x field concentration)

Molecule	Classification and statistics of the grade of pesticide damage: Grade 0 ([1]; topramezone 25 g ai/ha (1×))	Classification and statistics of the grade of pesticide damage: Grade 1 ([1]; topramezone 25 g ai/ha (1×))	Classification and statistics of the grade of pesticide damage: Grade 2 ([1]; topramezone 25 g ai/ha (1×))	Classification and statistics of the grade of pesticide damage: Grade 3 ([1]; topramezone 25 g ai/ha (1×))	Classification and statistics of the grade of pesticide damage: Grade 0 ([1]; topramezone 100 g ai/ha (4×))	Classification and statistics of the grade of pesticide damage: Grade 1 ([1]; topramezone 100 g ai/ha (4×))	Classification and statistics of the grade of pesticide damage: Grade 2 ([1]; topramezone 100 g ai/ha (4×))	Classification and statistics of the grade of pesticide damage: Grade 3 ([1]; topramezone 100 g ai/ha (4×))	Scores ([1]; topramezone 25 g ai/ha (1×))	Scores ([1]; topramezone 100 g ai/ha (4×))	Resistance evaluation ([1]; topramezone 25 g ai/ha (1×))	Resistance evaluation ([1]; topramezone 100 g ai/ha (4×))	Resistance evaluation [2, 4]	Scores (pesticide damage) [2, 4]	Classification and statistics of the grade of pesticide damage: Grade 0 (number of plants) [2, 4]	Classification and statistics of the grade of pesticide damage: Grade 1 (number of plants) [2, 4]	Classification and statistics of the grade of pesticide damage: Grade 2 (number of plants) [2, 4]	Classification and statistics of the grade of pesticide damage: Grade 3 (number of plants) [2, 4]	Resistance evaluation [2, 5]	Scores (pesticide damage) [2, 5]	also measured
HvHPPDm-F372A-02: nucleotide sequence encoding Hordeum vulgare HPPD with F372A; vector DBN11763 (nucleic acid, HvHPPDm-F372A-02 Nucleotide Sequence, vector DBN11763) DNA: ATGCCGCCGACGCCCACCACCCCAGCAGCTACCGGAGCTGCGGCTGCAGTAACCCCTGAGCATGCTCGGCCCCACAGGATGGTGAGGTTTAATCCAAGATCAGATCGTTTTCATACACTCTCGTTCCACCATGTTGAGTTCTGGTGCGCCGACGCGGCTTCAGCGGCCGGGAGGTTCGCCTTCGCGCTGGGGGCCCCTCTTGCCGCGCGTAGTGATTTGTCTACTGGGAATTCAGCGCACGCGTCCCAGCTTCTCCGAAGCGGCAGTCTCGCCTTTCTCTTCACTGCACCATATGCAAATGGATGTGATGCAGCAACTGCTTCCCTGCCGAGCTTTTCTGCGGATGCCGCGAGGCGATTCAGTGCTGACCATGGGATCGCCGTCCGGTCAGTTGCTCTTAGAGTGGCTGATGCTGCTGAGGCATTCAGGGCTTCAAGGCGTCGTGGTGCACGCCCGGCGTTTGCCCCGGTTGATCTTGGGCGGGGGTTTGCTTTTGCAGAGGTGGAGCTGTACGGCGACGTGGTGCTCCGATTTGTTTCTCACCCGGACGGCACTGATGTGCCCTTCTTGCCAGGATTTGAAGGTGTGACCAACCCTGATGCCGTGGATTATGGACTCACAAGATTTGATCATGTGGTTGGCAATGTTCCTGAATTGGCACCTGCTGCCGCTTACATCGCAGGTTTTACTGGCTTCCATGAATTTGCTGAATTCACGGCGGAGGATGTTGGTACAACTGAGTCAGGGCTGAACAGTGTTGTTTTAGCCAACAACTCAGAAGGAGTTCTCCTTCCCTTGAATGAACCTGTTCATGGAACCAAGCGCCGCTCCCAAATTCAAACATTTCTTGAGCACCACGGCGGCCCTGGTGTTCAACATATTGCTGTCGCCTCTAGCGACGTCCTGCGTACATTACGCAAGATGAGGGCTCGGTCCGCAATGGGTGGTTTCGACTTCCTCCCTCCACCATTGCCAAAATATTATGAAGGCGTCAGAAGACTTGCAGGAGATGTCCTCTCTGAAGCTCAGATCAAGGAGTGCCAAGAACTTGGCGTCTTGGTTGATAGAGATGACCAAGGAGTACTTCTGCAGATAGCCACAAAACCCGTTGGTGACAGGCCAACTCTTTTCCTGGAGATGATTCAGAGAATTGGCTGCATGGAGAAAGATGAAAGAGGCGAGGAGTACCAGAAGGGTGGTTGTGGAGGCTTTGGAAAAGGAAACTTCTCAGAGCTGTTCAAGTCCATAGAAGATTACGAGAAAAGTCTAGAAGCCAAGCAGTCTGCTGCAGTGCAAGGTTCCTGA	15	1	0	0	8	8	0	0	2	17	highly	moderately	Moderately	33	1	14	1	0	Poorly	44	Classification and statistics of the grade of pesticide damage: Grade 0 (number of plants) [2, 5]: 0; Classification and statistics of the grade of pesticide damage: Grade 1 (number of plants) [2, 5]: 12; Classification and statistics of the grade of pesticide damage: Grade 2 (number of plants) [2, 5]: 3; Classification and statistics of the grade of pesticide damage: Grade 3 (number of plants) [2, 5]: 1; Resistance evaluation ([3]; mesotrione 52.5 g ai/ha): Highly resistant; Scores ([3]; mesotrione 52.5 g ai/ha): 15; Grade 0 (classification and statistics of the grade of pesticide damage; number of plants) ([3]; mesotrione 52.5 g ai/ha): 9; Grade 1 (classification and statistics of the grade of pesticide damage; number of plants) ([3]; mesotrione 52.5 g ai/ha): 7; Grade 2 (classification and statistics of the grade of pesticide damage; number of plants) ([3]; mesotrione 52.5 g ai/ha): 0; Grade 3 (classification and statistics of the grade of pesticide damage; number of plants) ([3]; mesotrione 52.5 g ai/ha): 0; Resistance evaluation ([3]; mesotrione 105 g ai/ha): Poorly resistant; Scores ([3]; mesotrione 105 g ai/ha): 56; Grade 0 (classification and statistics of the grade of pesticide damage; number of plants) ([3]; mesotrione 105 g ai/ha): 0; Grade 1 (classification and statistics of the grade of pesticide damage; number of plants) ([3]; mesotrione 105 g ai/ha): 9; Grade 2 (classification and statistics of the grade of pesticide damage; number of plants) ([3]; mesotrione 105 g ai/ha): 3; Grade 3 (classification and statistics of the grade of pesticide damage; number of plants) ([3]; mesotrione 105 g ai/ha): 4
HvHPPDm-F383W-02: nucleotide sequence encoding Hordeum vulgare HPPD with F383W; vector DBN11764 (nucleic acid, HvHPPDm-F383W-02 Nucleotide Sequence, vector DBN11764) DNA: ATGCCGCCGACGCCCACCACCCCAGCAGCTACCGGAGCTGCGGCTGCAGTAACCCCTGAGCATGCTCGGCCCCACAGGATGGTGAGGTTTAATCCAAGATCAGATCGTTTTCATACACTCTCGTTCCACCATGTTGAGTTCTGGTGCGCCGACGCGGCTTCAGCGGCCGGGAGGTTCGCCTTCGCGCTGGGGGCCCCTCTTGCCGCGCGTAGTGATTTGTCTACTGGGAATTCAGCGCACGCGTCCCAGCTTCTCCGAAGCGGCAGTCTCGCCTTTCTCTTCACTGCACCATATGCAAATGGATGTGATGCAGCAACTGCTTCCCTGCCGAGCTTTTCTGCGGATGCCGCGAGGCGATTCAGTGCTGACCATGGGATCGCCGTCCGGTCAGTTGCTCTTAGAGTGGCTGATGCTGCTGAGGCATTCAGGGCTTCAAGGCGTCGTGGTGCACGCCCGGCGTTTGCCCCGGTTGATCTTGGGCGGGGGTTTGCTTTTGCAGAGGTGGAGCTGTACGGCGACGTGGTGCTCCGATTTGTTTCTCACCCGGACGGCACTGATGTGCCCTTCTTGCCAGGATTTGAAGGTGTGACCAACCCTGATGCCGTGGATTATGGACTCACAAGATTTGATCATGTGGTTGGCAATGTTCCTGAATTGGCACCTGCTGCCGCTTACATCGCAGGTTTTACTGGCTTCCATGAATTTGCTGAATTCACGGCGGAGGATGTTGGTACAACTGAGTCAGGGCTGAACAGTGTTGTTTTAGCCAACAACTCAGAAGGAGTTCTCCTTCCCTTGAATGAACCTGTTCATGGAACCAAGCGCCGCTCCCAAATTCAAACATTTCTTGAGCACCACGGCGGCCCTGGTGTTCAACATATTGCTGTCGCCTCTAGCGACGTCCTGCGTACATTACGCAAGATGAGGGCTCGGTCCGCAATGGGTGGTTTCGACTTCCTCCCTCCACCATTGCCAAAATATTATGAAGGCGTCAGAAGACTTGCAGGAGATGTCCTCTCTGAAGCTCAGATCAAGGAGTGCCAAGAACTTGGCGTCTTGGTTGATAGAGATGACCAAGGAGTACTTCTGCAGATATTTACAAAACCCGTTGGTGACAGGCCAACTCTTTGGCTGGAGATGATTCAGAGAATTGGCTGCATGGAGAAAGATGAAAGAGGCGAGGAGTACCAGAAGGGTGGTTGTGGAGGCTTTGGAAAAGGAAACTTCTCAGAGCTGTTCAAGTCCATAGAAGATTACGAGAAAAGTCTAGAAGCCAAGCAGTCTGCTGCAGTGCAAGGTTCCTGA	4	6	5	1	0	0	0	16	40	100	poorly	non-resistant (non-resistant plants (scores 68-100))	Poorly	67	0	1	14	1	Non-resistant	100	Classification and statistics of the grade of pesticide damage: Grade 0 (number of plants) [2, 5]: 0; Classification and statistics of the grade of pesticide damage: Grade 1 (number of plants) [2, 5]: 0; Classification and statistics of the grade of pesticide damage: Grade 2 (number of plants) [2, 5]: 0; Classification and statistics of the grade of pesticide damage: Grade 3 (number of plants) [2, 5]: 16; Resistance evaluation ([3]; mesotrione 52.5 g ai/ha): Moderately; Scores ([3]; mesotrione 52.5 g ai/ha): 33; Grade 0 (classification and statistics of the grade of pesticide damage; number of plants) ([3]; mesotrione 52.5 g ai/ha): 2; Grade 1 (classification and statistics of the grade of pesticide damage; number of plants) ([3]; mesotrione 52.5 g ai/ha): 12; Grade 2 (classification and statistics of the grade of pesticide damage; number of plants) ([3]; mesotrione 52.5 g ai/ha): 2; Grade 3 (classification and statistics of the grade of pesticide damage; number of plants) ([3]; mesotrione 52.5 g ai/ha): 0; Resistance evaluation ([3]; mesotrione 105 g ai/ha): Non-resistant; Scores ([3]; mesotrione 105 g ai/ha): 100; Grade 0 (classification and statistics of the grade of pesticide damage; number of plants) ([3]; mesotrione 105 g ai/ha): 0; Grade 1 (classification and statistics of the grade of pesticide damage; number of plants) ([3]; mesotrione 105 g ai/ha): 0; Grade 2 (classification and statistics of the grade of pesticide damage; number of plants) ([3]; mesotrione 105 g ai/ha): 0; Grade 3 (classification and statistics of the grade of pesticide damage; number of plants) ([3]; mesotrione 105 g ai/ha): 16
